Measured values as given in paper PMC12358912.
pKd: −log10 of the molar value.

Assays:
[1] = biological target: cohesin Trimer (SMC1/SMC3/SCC1);STAG1 (human;human) (UniProt Q14683+Q9UQE7+O60216+Q8WVM7); experiment: mass photometry; conditions: typically 150 nM protein + 150 nM DNA, then diluted (10-fold for NIPBL), phosphate buffer (HEPES for MC604 repeat), 50 mM NaCl for ATP …
[2] = biological target: NIPBL-MAU2 (human) (UniProt Q6KC79+Q9Y6X3); experiment: mass photometry; conditions: typically 150 nM protein + 150 nM DNA, then diluted (10-fold for NIPBL), phosphate buffer (HEPES for MC604 repeat), 50 mM NaCl for ATP …
[3] = biological target: T1, STAG1 (human) (UniProt Q8WVM7); experiment: mass photometry; conditions: typically 150 nM protein + 150 nM DNA, then diluted (10-fold for NIPBL), phosphate buffer (HEPES for MC604 repeat), 50 mM NaCl for ATP …
T1 sequence: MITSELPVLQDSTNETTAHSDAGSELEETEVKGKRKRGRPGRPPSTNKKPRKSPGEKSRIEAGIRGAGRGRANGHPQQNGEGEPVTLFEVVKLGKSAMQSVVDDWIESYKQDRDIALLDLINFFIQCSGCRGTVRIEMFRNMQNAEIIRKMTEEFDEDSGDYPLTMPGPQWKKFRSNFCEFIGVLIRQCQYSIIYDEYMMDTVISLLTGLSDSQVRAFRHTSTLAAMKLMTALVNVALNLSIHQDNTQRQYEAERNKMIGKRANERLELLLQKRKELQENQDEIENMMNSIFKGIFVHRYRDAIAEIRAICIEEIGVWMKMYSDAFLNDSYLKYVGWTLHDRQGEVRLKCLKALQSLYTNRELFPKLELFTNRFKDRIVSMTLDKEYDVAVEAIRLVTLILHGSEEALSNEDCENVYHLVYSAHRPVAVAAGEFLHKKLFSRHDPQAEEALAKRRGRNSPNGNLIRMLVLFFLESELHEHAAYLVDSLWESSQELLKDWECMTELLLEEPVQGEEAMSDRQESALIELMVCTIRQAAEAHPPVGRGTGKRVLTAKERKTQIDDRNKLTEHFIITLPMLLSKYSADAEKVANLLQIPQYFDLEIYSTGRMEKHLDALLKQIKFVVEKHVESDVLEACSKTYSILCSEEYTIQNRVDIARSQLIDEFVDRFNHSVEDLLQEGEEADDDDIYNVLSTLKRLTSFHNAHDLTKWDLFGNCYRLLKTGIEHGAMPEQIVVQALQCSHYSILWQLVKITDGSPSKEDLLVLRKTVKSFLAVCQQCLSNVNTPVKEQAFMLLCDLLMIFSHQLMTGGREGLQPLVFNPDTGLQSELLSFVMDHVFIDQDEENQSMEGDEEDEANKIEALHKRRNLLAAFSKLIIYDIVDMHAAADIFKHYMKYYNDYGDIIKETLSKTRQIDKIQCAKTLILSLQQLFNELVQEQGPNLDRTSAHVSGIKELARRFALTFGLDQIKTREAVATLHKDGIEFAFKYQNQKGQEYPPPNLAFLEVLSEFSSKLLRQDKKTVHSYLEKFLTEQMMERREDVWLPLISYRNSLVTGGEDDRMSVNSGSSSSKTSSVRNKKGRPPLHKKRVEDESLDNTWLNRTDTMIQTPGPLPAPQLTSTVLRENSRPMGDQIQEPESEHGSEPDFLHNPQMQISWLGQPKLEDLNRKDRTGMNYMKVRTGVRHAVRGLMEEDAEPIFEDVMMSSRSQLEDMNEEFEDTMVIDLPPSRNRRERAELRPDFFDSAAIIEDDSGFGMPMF

[4] = biological target: NIPBL (human) (UniProt Q6KC79); experiment: mass photometry; conditions: typically 150 nM protein + 150 nM DNA, then diluted (10-fold for NIPBL), phosphate buffer (HEPES for MC604 repeat), 50 mM NaCl for ATP …
[5] = biological target: SMC1/SMC3/SCC1 cohesin Trimer (UniProt Q14683); experiment: mass photometry; in solution; two components mixed and equilibrated: 150 nM cohesin Trimer sample with 150 nM NIPBL, or with 150 nM or 80 nM STAG1 (total protein concentrations); KD from individual mass distributions; ATP is said not to affect these 1:1 interactions

Sequence of NIPBL (human) (Q6KC79 whole entry): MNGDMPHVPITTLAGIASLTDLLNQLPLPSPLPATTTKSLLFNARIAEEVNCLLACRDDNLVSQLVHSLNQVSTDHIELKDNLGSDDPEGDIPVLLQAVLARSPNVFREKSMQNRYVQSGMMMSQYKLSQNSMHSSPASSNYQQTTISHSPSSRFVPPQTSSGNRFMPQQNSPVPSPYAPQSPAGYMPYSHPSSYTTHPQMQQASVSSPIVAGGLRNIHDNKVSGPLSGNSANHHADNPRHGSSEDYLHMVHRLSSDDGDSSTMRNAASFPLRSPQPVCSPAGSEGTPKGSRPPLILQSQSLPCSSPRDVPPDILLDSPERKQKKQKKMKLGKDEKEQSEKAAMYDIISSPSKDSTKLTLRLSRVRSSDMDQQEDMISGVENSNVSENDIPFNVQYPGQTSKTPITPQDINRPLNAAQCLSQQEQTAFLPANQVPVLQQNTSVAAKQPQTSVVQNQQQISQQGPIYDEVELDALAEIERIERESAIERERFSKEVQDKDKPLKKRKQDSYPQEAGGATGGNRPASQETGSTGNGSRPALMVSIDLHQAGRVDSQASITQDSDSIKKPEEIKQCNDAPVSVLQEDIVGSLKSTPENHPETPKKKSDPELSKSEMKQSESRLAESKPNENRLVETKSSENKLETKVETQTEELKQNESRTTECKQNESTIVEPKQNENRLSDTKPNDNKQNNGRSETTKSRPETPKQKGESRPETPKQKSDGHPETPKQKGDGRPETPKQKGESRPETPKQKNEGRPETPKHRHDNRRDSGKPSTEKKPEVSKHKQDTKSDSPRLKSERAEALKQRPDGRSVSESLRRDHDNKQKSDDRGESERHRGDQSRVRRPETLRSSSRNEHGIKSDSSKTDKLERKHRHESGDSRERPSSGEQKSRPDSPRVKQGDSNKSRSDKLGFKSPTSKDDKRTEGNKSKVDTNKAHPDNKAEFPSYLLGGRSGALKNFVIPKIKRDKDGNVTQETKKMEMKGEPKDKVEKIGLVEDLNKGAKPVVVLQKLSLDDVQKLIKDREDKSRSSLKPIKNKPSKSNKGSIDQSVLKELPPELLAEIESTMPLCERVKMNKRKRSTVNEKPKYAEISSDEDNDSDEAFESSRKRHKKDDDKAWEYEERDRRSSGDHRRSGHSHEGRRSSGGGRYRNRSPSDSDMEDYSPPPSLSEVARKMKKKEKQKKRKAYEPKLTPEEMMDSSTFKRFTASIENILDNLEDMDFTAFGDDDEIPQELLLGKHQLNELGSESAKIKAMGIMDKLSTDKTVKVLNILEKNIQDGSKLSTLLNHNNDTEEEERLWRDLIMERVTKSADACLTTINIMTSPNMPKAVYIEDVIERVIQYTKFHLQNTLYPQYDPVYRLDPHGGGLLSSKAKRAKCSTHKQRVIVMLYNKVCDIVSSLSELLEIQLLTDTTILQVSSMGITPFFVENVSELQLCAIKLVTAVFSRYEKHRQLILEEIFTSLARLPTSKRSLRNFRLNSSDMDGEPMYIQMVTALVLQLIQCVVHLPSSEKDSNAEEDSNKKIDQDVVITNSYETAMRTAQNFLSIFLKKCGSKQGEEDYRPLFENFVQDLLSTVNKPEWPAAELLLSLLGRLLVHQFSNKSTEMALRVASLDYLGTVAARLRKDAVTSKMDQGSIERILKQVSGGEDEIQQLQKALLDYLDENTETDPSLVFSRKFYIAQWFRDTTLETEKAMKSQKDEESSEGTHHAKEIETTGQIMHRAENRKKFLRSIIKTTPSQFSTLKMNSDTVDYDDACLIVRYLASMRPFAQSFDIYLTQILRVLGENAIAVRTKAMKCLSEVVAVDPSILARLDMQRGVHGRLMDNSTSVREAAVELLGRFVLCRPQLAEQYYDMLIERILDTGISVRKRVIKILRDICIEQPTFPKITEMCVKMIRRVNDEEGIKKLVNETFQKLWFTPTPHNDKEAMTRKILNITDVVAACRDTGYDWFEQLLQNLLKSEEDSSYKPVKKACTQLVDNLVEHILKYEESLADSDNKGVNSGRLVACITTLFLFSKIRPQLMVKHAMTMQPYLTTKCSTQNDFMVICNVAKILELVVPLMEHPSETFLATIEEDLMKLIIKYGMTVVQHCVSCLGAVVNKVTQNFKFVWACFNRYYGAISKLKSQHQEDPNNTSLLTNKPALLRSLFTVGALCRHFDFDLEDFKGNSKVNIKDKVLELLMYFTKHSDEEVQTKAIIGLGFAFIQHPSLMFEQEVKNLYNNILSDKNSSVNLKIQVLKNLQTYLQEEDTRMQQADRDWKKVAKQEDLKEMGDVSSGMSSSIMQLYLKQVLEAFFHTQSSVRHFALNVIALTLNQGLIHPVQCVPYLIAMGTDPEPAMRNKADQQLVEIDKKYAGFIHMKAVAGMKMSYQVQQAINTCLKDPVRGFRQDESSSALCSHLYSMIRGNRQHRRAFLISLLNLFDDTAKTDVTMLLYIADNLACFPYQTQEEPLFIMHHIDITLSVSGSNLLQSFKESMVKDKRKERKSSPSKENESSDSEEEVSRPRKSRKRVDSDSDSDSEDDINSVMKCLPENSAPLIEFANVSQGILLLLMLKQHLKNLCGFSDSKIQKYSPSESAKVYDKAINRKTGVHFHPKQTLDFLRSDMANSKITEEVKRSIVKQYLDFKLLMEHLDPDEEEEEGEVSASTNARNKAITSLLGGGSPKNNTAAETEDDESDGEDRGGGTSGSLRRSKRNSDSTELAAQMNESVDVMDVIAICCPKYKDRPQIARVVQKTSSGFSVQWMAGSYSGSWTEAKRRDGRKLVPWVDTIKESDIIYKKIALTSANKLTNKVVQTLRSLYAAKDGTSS
Sequence of NIPBL-MAU2 (human) (Q6KC79 whole entry, chain 1 of 2): as the sequence (Q6KC79 whole entry) above
Sequence of NIPBL-MAU2 (human) (Q9Y6X3 whole entry, chain 2 of 2): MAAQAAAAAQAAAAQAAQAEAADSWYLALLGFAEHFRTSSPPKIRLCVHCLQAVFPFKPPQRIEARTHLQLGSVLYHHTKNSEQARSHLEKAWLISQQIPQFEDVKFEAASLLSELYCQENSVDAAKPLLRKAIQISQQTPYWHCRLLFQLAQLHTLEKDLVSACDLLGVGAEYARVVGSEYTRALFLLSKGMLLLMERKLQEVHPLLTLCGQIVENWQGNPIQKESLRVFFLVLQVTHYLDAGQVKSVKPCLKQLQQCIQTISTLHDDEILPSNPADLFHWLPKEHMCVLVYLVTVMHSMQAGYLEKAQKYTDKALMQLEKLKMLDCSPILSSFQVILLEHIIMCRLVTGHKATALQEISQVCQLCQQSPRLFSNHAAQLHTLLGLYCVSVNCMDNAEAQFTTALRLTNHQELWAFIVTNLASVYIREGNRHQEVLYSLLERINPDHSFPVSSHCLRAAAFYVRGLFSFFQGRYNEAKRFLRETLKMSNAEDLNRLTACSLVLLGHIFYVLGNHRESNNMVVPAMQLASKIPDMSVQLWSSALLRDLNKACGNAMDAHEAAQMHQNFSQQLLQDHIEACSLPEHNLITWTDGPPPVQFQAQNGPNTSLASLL

“CATATGTGCAGTCCCCCCATAAAAAAACCCGCCGAAGCGGGTTTTTACGTTATTTGCGGATTTTAATTAACTAGTTCTAGAGCTCACGTGCAGCTGTCGACGGTACCTGCAGGCCGGCCAGTACTGGGCCCCAACAGATAAAACGAAAGGCCCAGTCTTTCGACTGAGCCTTTCGTTTTATTGGGCCCCCTTGGTCAAATTGGGTATACCCATTTGGGCCTGGTCTGGCCGGCATGGCGCATTACAGCGGTACGCAATTTAAATGCGCCTAGCGCATTTTCCCGACCTTAATGCGCCTCGCG (double strand) [MC302 supercoiled minicircle]” gave a pKd [1] of 6.77, a pKd [2] of 7.91 and a pKd [3] of 5.87. It also gave a pKd [4] greater than 8.00.

NIPBL, Q6KC79 1-2804 gave a pKd [5] of 7.70.
